The supplement of paper PMC9112550, “Optimization of the antimicrobial peptide Bac7 by deep mutational scanning” (BMC Biology, 2022)

Tested on: Escherichia coli TOP10
Assay: shrunken log2 fold change of peptide-encoding DNA abundance (4.5 h post-induction vs induction); higher = less antimicrobial activity (less host growth inhibition)
Conditions: time post-induction: 4.5 h; library: site-saturation at positions 5, 18, 19, 20
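Also: peptides expressed intracellularly from a pBAD plasmid library in pooled LB shake-flask culture, induced with 0.3% L-arabinose, DNA abundance read by NGS, three biological replicates, DESeq2 with apeglm shrinkage.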

Row | Sequence | shrunken log2 fold change
1 | RRIRTRPPRLPRPRPRPTLPPRP | 0.149
2 | RRIRHRPPRLPRPRPRPCPMPRP | -0.0207
3 | RRIRFRPPRLPRPRPRPKPPPRP | 1.35
4 | RRIRGRPPRLPRPRPRPRQIPRP | 0.684
5 | RRIRWRPPRLPRPRPRPCNNPRP | 0.00194
6 | RRIRWRPPRLPRPRPRPHCRPRP | 0.0889
7 | RRIRSRPPRLPRPRPRPYHRPRP | -0.507
8 | RRIRARPPRLPRPRPRPDTRPRP | 0.0596
9 | RRIRMRPPRLPRPRPRPVTHPRP | 0.0493
10 | RRIRERPPRLPRPRPRPFEWPRP | -0.132
11 | RRIRTRPPRLPRPRPRPDPVPRP | -0.216
12 | RRIRVRPPRLPRPRPRPPYQPRP | -0.3
13 | RRIRRRPPRLPRPRPRPCGSPRP | 0.0143
14 | RRIRNRPPRLPRPRPRPIEWPRP | -0.00176
15 | RRIRSRPPRLPRPRPRPPTEPRP | 0.194
16 | RRIRYRPPRLPRPRPRPPHYPRP | -0.686
17 | RRIRPRPPRLPRPRPRPLKVPRP | -0.107
18 | RRIRLRPPRLPRPRPRPWFAPRP | -0.112
19 | RRIRERPPRLPRPRPRPMGGPRP | 0.0346
20 | RRIRNRPPRLPRPRPRPMMDPRP | -0.425
21 | RRIRFRPPRLPRPRPRPNCPPRP | 0.0451
22 | RRIRRRPPRLPRPRPRPKLIPRP | -0.395

Row | Sequence | shrunken log2 fold change
23 | RRIRNRPPRLPRPRPRPAMYPRP | -0.112
24 | RRIRMRPPRLPRPRPRPDTYPRP | 0.0447
25 | RRIRCRPPRLPRPRPRPDTNPRP | -0.285
26 | RRIRKRPPRLPRPRPRPVQWPRP | 0.743
27 | RRIRSRPPRLPRPRPRPGSIPRP | -0.0732
28 | RRIRPRPPRLPRPRPRPPASPRP | 0.559
29 | RRIRLRPPRLPRPRPRPYYRPRP | -0.043
30 | RRIRCRPPRLPRPRPRPICVPRP | 0.0832
31 | RRIRIRPPRLPRPRPRPWNIPRP | -0.0297
32 | RRIRLRPPRLPRPRPRPPFLPRP | 0.105
33 | RRIRGRPPRLPRPRPRPTPWPRP | 0.848
34 | RRIRGRPPRLPRPRPRPGGQPRP | 0.672
35 | RRIRFRPPRLPRPRPRPDVYPRP | -0.32
36 | RRIRGRPPRLPRPRPRPNWPPRP | 0.306
37 | RRIRTRPPRLPRPRPRPAVMPRP | 0.06
38 | RRIRGRPPRLPRPRPRPAGTPRP | 0.752
39 | RRIRQRPPRLPRPRPRPFEQPRP | 0.106
40 | RRIRFRPPRLPRPRPRPNKGPRP | -0.606
41 | RRIRARPPRLPRPRPRPLLKPRP | 0.0989
42 | RRIRVRPPRLPRPRPRPPNGPRP | 0.0958
43 | RRIRTRPPRLPRPRPRPTDYPRP | -0.263
44 | RRIRHRPPRLPRPRPRPAVIPRP | -0.0639

Row | Sequence | shrunken log2 fold change
45 | RRIRYRPPRLPRPRPRPLEPPRP | -0.124
46 | RRIRYRPPRLPRPRPRPPTNPRP | 0.0849
47 | RRIRMRPPRLPRPRPRPPWQPRP | 0.763
48 | RRIRPRPPRLPRPRPRPTFDPRP | -0.0186
49 | RRIRTRPPRLPRPRPRPQLYPRP | -0.0657
50 | RRIRNRPPRLPRPRPRPRHRPRP | 0.202
51 | RRIRARPPRLPRPRPRPWMIPRP | -0.0822
52 | RRIRDRPPRLPRPRPRPVRTPRP | -0.176
53 | RRIRIRPPRLPRPRPRPYYVPRP | -0.481
54 | RRIRCRPPRLPRPRPRPCILPRP | -1.1
55 | RRIRYRPPRLPRPRPRPHEHPRP | -0.0681
56 | RRIRSRPPRLPRPRPRPQLMPRP | -0.1
57 | RRIRPRPPRLPRPRPRPKEPPRP | 0.133
58 | RRIRCRPPRLPRPRPRPFDPPRP | -0.0744
59 | RRIRDRPPRLPRPRPRPICPPRP | 0.106
60 | RRIRVRPPRLPRPRPRPHSNPRP | -0.505
61 | RRIRMRPPRLPRPRPRPSQNPRP | 0.407
62 | RRIRPRPPRLPRPRPRPAHGPRP | 0.708
63 | RRIRWRPPRLPRPRPRPGQEPRP | 0.617
64 | RRIRERPPRLPRPRPRPNWCPRP | -0.0117
65 | RRIRTRPPRLPRPRPRPDDHPRP | -0.00476
66 | RRIRYRPPRLPRPRPRPPFYPRP | -0.789

Row | Sequence | shrunken log2 fold change
67 | RRIRDRPPRLPRPRPRPFAVPRP | -0.0136
68 | RRIRFRPPRLPRPRPRPLNHPRP | -0.608
69 | RRIRGRPPRLPRPRPRPWEYPRP | -0.00088
70 | RRIRWRPPRLPRPRPRPWLMPRP | 0.116
71 | RRIRDRPPRLPRPRPRPRTGPRP | 0.0132
72 | RRIRQRPPRLPRPRPRPHCEPRP | -0.0142
73 | RRIRKRPPRLPRPRPRPYQFPRP | -0.17
74 | RRIRRRPPRLPRPRPRPHCQPRP | 0.17
75 | RRIRSRPPRLPRPRPRPYWHPRP | -0.783
76 | RRIRYRPPRLPRPRPRPGWVPRP | 0.0444
77 | RRIRYRPPRLPRPRPRPQYNPRP | -1.49
78 | RRIRGRPPRLPRPRPRPWKQPRP | 0.152
79 | RRIRQRPPRLPRPRPRPDHWPRP | -0.368
80 | RRIRQRPPRLPRPRPRPNQAPRP | -0.0235
81 | RRIRSRPPRLPRPRPRPSWNPRP | -0.342
82 | RRIRSRPPRLPRPRPRPTKHPRP | -0.151
83 | RRIRGRPPRLPRPRPRPFLCPRP | 0.231
84 | RRIRRRPPRLPRPRPRPPLFPRP | 0.464
85 | RRIRRRPPRLPRPRPRPHEIPRP | -0.0745
86 | RRIRCRPPRLPRPRPRPDHAPRP | -0.0323
87 | RRIRYRPPRLPRPRPRPGVLPRP | -0.916
88 | RRIRRRPPRLPRPRPRPDIWPRP | 0.418

Row | Sequence | shrunken log2 fold change
89 | RRIRCRPPRLPRPRPRPDYTPRP | -0.442
90 | RRIRIRPPRLPRPRPRPPESPRP | 0.185
91 | RRIRDRPPRLPRPRPRPDHTPRP | 0.0303
92 | RRIRQRPPRLPRPRPRPEWSPRP | 0.0925
93 | RRIRFRPPRLPRPRPRPFFDPRP | -0.065
94 | RRIRSRPPRLPRPRPRPKCQPRP | 0.607
95 | RRIRERPPRLPRPRPRPKKKPRP | -0.0784
96 | RRIRWRPPRLPRPRPRPSHPPRP | -0.0699
97 | RRIRGRPPRLPRPRPRPHWDPRP | 0.645
98 | RRIRVRPPRLPRPRPRPLRYPRP | -0.142
99 | RRIRMRPPRLPRPRPRPFSIPRP | -0.11
100 | RRIRIRPPRLPRPRPRPMNWPRP | -0.135
101 | RRIRCRPPRLPRPRPRPHKWPRP | -0.174
102 | RRIRPRPPRLPRPRPRPYPWPRP | -0.345
103 | RRIRWRPPRLPRPRPRPAKYPRP | -0.183
104 | RRIRKRPPRLPRPRPRPEMPPRP | 0.668
105 | RRIRMRPPRLPRPRPRPEVPPRP | 1.33
106 | RRIRYRPPRLPRPRPRPVADPRP | -0.127
107 | RRIRQRPPRLPRPRPRPSFYPRP | -0.653
108 | RRIRDRPPRLPRPRPRPENLPRP | 0.0863
109 | RRIRHRPPRLPRPRPRPFIFPRP | -0.656
